Laboratory results: patent publication US20200190192A1 (SUTRO BIOPHARMA, published 2020)

T1: cynomolgus Tim-3 expressed on CHO cells (cynomolgus monkey)
T1 construct: also called cTim-3; Cyno Tim-3 (CHO)
T1 chain: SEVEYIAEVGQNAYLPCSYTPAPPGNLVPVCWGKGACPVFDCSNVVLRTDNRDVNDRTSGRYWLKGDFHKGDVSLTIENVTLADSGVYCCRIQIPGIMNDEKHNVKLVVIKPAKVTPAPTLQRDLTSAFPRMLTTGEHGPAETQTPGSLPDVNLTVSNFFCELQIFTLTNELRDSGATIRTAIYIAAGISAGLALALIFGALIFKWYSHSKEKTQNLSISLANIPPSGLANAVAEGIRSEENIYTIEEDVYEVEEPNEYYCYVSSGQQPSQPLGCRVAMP


How the values were obtained:
[1] = molecular target: T2, human Tim-3 expressed on the cell surface (human, UniProt Q8TDQ0 22-301); experiment: flow cytometry, CHO-human Tim-3 cells;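 note: antibodies bound on ice for 60 min, detected by PE anti-human IgG Fc secondary, mean fluorescence intensity fit to one-site specific binding with Hill slope, parental CHO cells as nonspecific control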
T2 construct: also called hTim-3; Human Tim-3 (CHO)

[2] = molecular target: T1, cynomolgus Tim-3 expressed on CHO cells; experiment: flow cytometry, CHO-cyno Tim-3 cells
[3] = molecular target: T3, recombinant human Tim-3-Fc (R&D Systems, 2365-TM) (human, UniProt Q8TDQ0 22-202, biotinylated in the Galectin-9 competition ELISA (sites not given)); experiment: SPR Biacore, human Tim-3 Fc;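 note: antibodies captured on an anti-FLAG sensor surface, Tim-3-Fc flowed over as analyte at 25 °C in HBS-EP+ buffer, rates fit with a 1:1 Langmuir model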
T3 construct: Bought protein; also called huTim-3-Fc; biotinylated Tim-3-Fc; not shown: Fc of the bought fusion protein

[4] = molecular target: T2, human Tim-3 expressed on the cell …; experiment: flow cytometry, activated human CD4+ T cells
[5] = molecular target: T3, recombinant human Tim-3-Fc (R&D …); experiment: SPR Biacore, human Tim-3 Fc; KD estimated

| Kd [1] | Kd [2] | koff [3] | Kd [4] | Kd [5] | Binder |
| --- | --- | --- | --- | --- | --- |
| 0.7 nM | 6.9 nM | 0.000934 s⁻¹ | 0.9 nM | 5.3 nM | h22E11-VK3-11 × h22E11-VH3-23 (antibody, V domains shown, Humanized m22E11) VH: EVQLLESGGGLVQPGGSLRLSCAVSGFSLTSYGVHWVRQAPGKGLEWLVVIWSDGSTTYNDSVKGRFTISKDNSKNTVYLQMNSLRAEDTAVYYCARQGGYRYDDAMDYWGQGTLVTVSS VL: EIVLTQSPATLSLSPGERATLSCKASQSVDYDGNSYVNWYQQKPGQAPRLLIYAASNLESGIPARFSGSGSGTDFTLTISSLEPEDFAVYYCQQSNEDPYTFGQGTKVEIK |
| 0.8 nM | 2.7 nM | 0.000875 s⁻¹ | 0.6 nM | 4.3 nM | h22E11-VK3-11 × h22E11-VH5-51 (antibody, V domains shown, Humanized m22E11) VH: EVQLVQSGAEVKKPGESLKISCKVSGFSLTSYGVHWVRQMPGKGLEWLVVIWSDGSTTYNPSFQGQVTISKDKSISTVYLQWSSLKASDTAMYYCARQGGYRYDDAMDYWGQGTLVTVSS VL: EIVLTQSPATLSLSPGERATLSCKASQSVDYDGNSYVNWYQQKPGQAPRLLIYAASNLESGIPARFSGSGSGTDFTLTISSLEPEDFAVYYCQQSNEDPYTFGQGTKVEIK |
| – | – | 0.0011 s⁻¹ | – | 5 nM | h22E11-5-IgG-LC × h22E11-VH5-51 (antibody, V domains shown, Humanized m22E11) VH: EVQLVQSGAEVKKPGESLKISCKVSGFSLTSYGVHWVRQMPGKGLEWLVVIWSDGSTTYNPSFQGQVTISKDKSISTVYLQWSSLKASDTAMYYCARQGGYRYDDAMDYWGQGTLVTVSS VL: EIVLTQSPGTLSLSPGERATLSCKASQSVDYDGNSYVAWYQQKPGQAPRLLIYAASNLESGIPDRFSGSGSGTDFTLTISRLEPEDFAVYYCQQSNEDPYTFGQGTKVEIK |
| 0.8 nM | 13.2 nM | 0.000895 s⁻¹ | 1.2 nM | 5.3 nM | h22E11-5-IgG-LC × h22E11-VH3-23 (antibody, V domains shown, Humanized m22E11) VH: EVQLLESGGGLVQPGGSLRLSCAVSGFSLTSYGVHWVRQAPGKGLEWLVVIWSDGSTTYNDSVKGRFTISKDNSKNTVYLQMNSLRAEDTAVYYCARQGGYRYDDAMDYWGQGTLVTVSS VL: EIVLTQSPGTLSLSPGERATLSCKASQSVDYDGNSYVAWYQQKPGQAPRLLIYAASNLESGIPDRFSGSGSGTDFTLTISRLEPEDFAVYYCQQSNEDPYTFGQGTKVEIK |
| 1.1 nM | 5 nM | 0.00119 s⁻¹ | 5.7 nM | 8.1 nM | h22E11-VK4-1 × h22E11-VH4-30-4 (antibody, V domains shown, Humanized m22E11) VH: QVQLQESGPGLVKPSQTLSLTCTVSGFSLTSYGVHWIRQPPGKGLEWLVVIWSDGSTTYNPSLKSRVTISKDTSKNQVSLKLSSVTAADTAVYYCARQGGYRYDDAMDYWGQGTLVTVSS VL: DIVLTQSPDSLAVSLGERATINCKASQSVDYDGNSYVNWYQQKPGQPPKLLIYAASNLESGVPDRFSGSGSGTDFTLTISSLQAEDVAVYYCQQSNEDPYTFGQGTKVEIK |
| 1 nM | 4.5 nM | 0.00107 s⁻¹ | 7.1 nM | 7.2 nM | h22E11-VK3-11 × h22E11-VH4-30-4 (antibody, V domains shown, Humanized m22E11) VH: QVQLQESGPGLVKPSQTLSLTCTVSGFSLTSYGVHWIRQPPGKGLEWLVVIWSDGSTTYNPSLKSRVTISKDTSKNQVSLKLSSVTAADTAVYYCARQGGYRYDDAMDYWGQGTLVTVSS VL: EIVLTQSPATLSLSPGERATLSCKASQSVDYDGNSYVNWYQQKPGQAPRLLIYAASNLESGIPARFSGSGSGTDFTLTISSLEPEDFAVYYCQQSNEDPYTFGQGTKVEIK |
| 0.8 nM | 1.9 nM | 0.000881 s⁻¹ | 0.6 nM | 4.8 nM | h22E11-VK4-1 × h22E11-VH5-51 (antibody, V domains shown, Humanized m22E11) VH: EVQLVQSGAEVKKPGESLKISCKVSGFSLTSYGVHWVRQMPGKGLEWLVVIWSDGSTTYNPSFQGQVTISKDKSISTVYLQWSSLKASDTAMYYCARQGGYRYDDAMDYWGQGTLVTVSS VL: DIVLTQSPDSLAVSLGERATINCKASQSVDYDGNSYVNWYQQKPGQPPKLLIYAASNLESGVPDRFSGSGSGTDFTLTISSLQAEDVAVYYCQQSNEDPYTFGQGTKVEIK |
| 0.8 nM | 5.3 nM | 0.000973 s⁻¹ | 1.4 nM | 5.7 nM | h22E11-VK4-1 × h22E11-5-IgG-HC (antibody, V domains shown, Humanized m22E11) VH: EVQLVESGGGLVQPGGSLRLSCAVSGFSLTSYGVHWVRQAPGKGLEWLVVIWSDGSTTYNSALKSRFTISKDNAKNSVYLQMNSLRAEDTAVYYCARQGGYRYDDAMDYWGQGTLVTVSS VL: DIVLTQSPDSLAVSLGERATINCKASQSVDYDGNSYVNWYQQKPGQPPKLLIYAASNLESGVPDRFSGSGSGTDFTLTISSLQAEDVAVYYCQQSNEDPYTFGQGTKVEIK |
| 3.7 nM | – | 0.00117 s⁻¹ | – | 7.6 nM | h22E11-5-IgG-LC × h22E11-VH4-30-4 (antibody, V domains shown, Humanized m22E11) VH: QVQLQESGPGLVKPSQTLSLTCTVSGFSLTSYGVHWIRQPPGKGLEWLVVIWSDGSTTYNPSLKSRVTISKDTSKNQVSLKLSSVTAADTAVYYCARQGGYRYDDAMDYWGQGTLVTVSS VL: EIVLTQSPGTLSLSPGERATLSCKASQSVDYDGNSYVAWYQQKPGQAPRLLIYAASNLESGIPDRFSGSGSGTDFTLTISRLEPEDFAVYYCQQSNEDPYTFGQGTKVEIK |
| 0.6 nM | 1.7 nM | 0.00094 s⁻¹ | 2.6 nM | 6 nM | h22E11-VK1-39 × h22E11-VH1-69 (antibody, V domains shown, Humanized m22E11) VH: QVQLVQSGAEVKKPGSSVKVSCKVSGFSLTSYGVHWVRQAPGQGLEWLVVIWSDGSTTYNQKFQGRVTITKDESTSTVYMELSSLRSEDTAVYYCARQGGYRYDDAMDYWGQGTLVTVSS VL: DIQLTQSPSSLSASVGDRVTITCKASQSVDYDGNSYVNWYQQKPGKAPKLLIYAASNLESGVPSRFSGSGSGTDFTLTISSLQPEDFATYYCQQSNEDPYTFGQGTKVEIK |
| 0.4 nM | 2.1 nM | 0.000947 s⁻¹ | 0.9 nM | 5.3 nM | h22E11-VK1-39 × h22E11-VH5-51 (antibody, V domains shown, Humanized m22E11) VH: EVQLVQSGAEVKKPGESLKISCKVSGFSLTSYGVHWVRQMPGKGLEWLVVIWSDGSTTYNPSFQGQVTISKDKSISTVYLQWSSLKASDTAMYYCARQGGYRYDDAMDYWGQGTLVTVSS VL: DIQLTQSPSSLSASVGDRVTITCKASQSVDYDGNSYVNWYQQKPGKAPKLLIYAASNLESGVPSRFSGSGSGTDFTLTISSLQPEDFATYYCQQSNEDPYTFGQGTKVEIK |
| 0.7 nM | 5.5 nM | 0.00126 s⁻¹ | – | 9.1 nM | h22E11-VK1-39 × h22E11-VH4-30-4 (antibody, V domains shown, Humanized m22E11) VH: QVQLQESGPGLVKPSQTLSLTCTVSGFSLTSYGVHWIRQPPGKGLEWLVVIWSDGSTTYNPSLKSRVTISKDTSKNQVSLKLSSVTAADTAVYYCARQGGYRYDDAMDYWGQGTLVTVSS VL: DIQLTQSPSSLSASVGDRVTITCKASQSVDYDGNSYVNWYQQKPGKAPKLLIYAASNLESGVPSRFSGSGSGTDFTLTISSLQPEDFATYYCQQSNEDPYTFGQGTKVEIK |
| 1 nM | 2.8 nM | 0.000867 s⁻¹ | 4 nM | 4.9 nM | h22E11-VK3-11 × h22E11-VH1-69 (antibody, V domains shown, Humanized m22E11) VH: QVQLVQSGAEVKKPGSSVKVSCKVSGFSLTSYGVHWVRQAPGQGLEWLVVIWSDGSTTYNQKFQGRVTITKDESTSTVYMELSSLRSEDTAVYYCARQGGYRYDDAMDYWGQGTLVTVSS VL: EIVLTQSPATLSLSPGERATLSCKASQSVDYDGNSYVNWYQQKPGQAPRLLIYAASNLESGIPARFSGSGSGTDFTLTISSLEPEDFAVYYCQQSNEDPYTFGQGTKVEIK |
| 0.5 nM | 4.5 nM | 0.00094 s⁻¹ | 1.1 nM | 5.6 nM | h22E11-VK1-39 × h22E11-VH3-23 (antibody, V domains shown, Humanized m22E11) VH: EVQLLESGGGLVQPGGSLRLSCAVSGFSLTSYGVHWVRQAPGKGLEWLVVIWSDGSTTYNDSVKGRFTISKDNSKNTVYLQMNSLRAEDTAVYYCARQGGYRYDDAMDYWGQGTLVTVSS VL: DIQLTQSPSSLSASVGDRVTITCKASQSVDYDGNSYVNWYQQKPGKAPKLLIYAASNLESGVPSRFSGSGSGTDFTLTISSLQPEDFATYYCQQSNEDPYTFGQGTKVEIK |
| 0.6 nM | 4.7 nM | 0.00102 s⁻¹ | 2.4 nM | 6.2 nM | h22E11-VK1-39 × h22E11-5-IgG-HC (antibody, V domains shown, Humanized m22E11) VH: EVQLVESGGGLVQPGGSLRLSCAVSGFSLTSYGVHWVRQAPGKGLEWLVVIWSDGSTTYNSALKSRFTISKDNAKNSVYLQMNSLRAEDTAVYYCARQGGYRYDDAMDYWGQGTLVTVSS VL: DIQLTQSPSSLSASVGDRVTITCKASQSVDYDGNSYVNWYQQKPGKAPKLLIYAASNLESGVPSRFSGSGSGTDFTLTISSLQPEDFATYYCQQSNEDPYTFGQGTKVEIK |
| 0.9 nM | 3 nM | 0.000991 s⁻¹ | 1.6 nM | 4.9 nM | h22E11-5-IgG-LC × h22E11-VH1-69 (antibody, V domains shown, Humanized m22E11) VH: QVQLVQSGAEVKKPGSSVKVSCKVSGFSLTSYGVHWVRQAPGQGLEWLVVIWSDGSTTYNQKFQGRVTITKDESTSTVYMELSSLRSEDTAVYYCARQGGYRYDDAMDYWGQGTLVTVSS VL: EIVLTQSPGTLSLSPGERATLSCKASQSVDYDGNSYVAWYQQKPGQAPRLLIYAASNLESGIPDRFSGSGSGTDFTLTISRLEPEDFAVYYCQQSNEDPYTFGQGTKVEIK |
